According to US20220119517A1 (NANJING SANHOME PHARMACEUTICAL, published 2022):

Legend:
[1] = biological target: T1, human Claudin18.1 (CLDN18.1), full length, on cells (human, UniProt P56856 1-261); assay: cellular ELISA, hybridoma supernatant on fixed HEK293-CLDN18.1 cells
T1 construct: HEK293-CLDN18.1 cells carry a fusion with green fluorescent protein (ZsGreen); CHO-K1-CLDN18.1 cells carry pcDNA3.1-CLDN18.1; The cell line is named under assay; also called CLDN18.1-FL; HEK293-CLDN18.1 cells
Method: (§1) HEK293-CLDN18.1 and HEK293-CLDN18.2 cells were cultured separately with DMEM complete culture medium containing 10% fetal bovine serum at 37° C., 5% CO₂. When the cells grew to 80%-90% confluency, they were digested with 0.5 mM EDTA-PBS non-trypsin digestion solution at room temperature, and centrifuged at 1000 rpm for 5 minutes, the supernatant was discarded. Resuspended in DMEM complete culture medium, and the cell concentration was adjusted to 6×10⁵ cells/ml. Cells were plated on 96-well cell plates (Corning) pre-coated with polylysine, 100 μl per well, incubated at 37° C., 5% CO₂ for 24 hours, making cells evenly and completely plated on the bottom of the well. The culture supernatant was aspirated, and the cells were fixed with 4% paraformaldehyde at room temperature for 20 minutes, washed 3 times with 200 μl PBS, 2 minutes at each time. The well plates were blocked with 200 μl of 3% BSA-PBS at 37° C. for 1 hour. […] of subclone culture supernatant was taken and added into the well plate, incubated at 37° C. for 1 hour, washed 5 times with PBS. Incubation with HRP-anti mouse IgG+IgM (Jackson) diluted 1:10000 in blocking solution was performed at 37° C. for 1 hour followed by washing 5 times with PBS. 100 μl of TMB one-component color developing solution was added, protected from light at room temperature for 5-10 minutes, terminated with 2M sulfuric acid, and OD450 was read on the microplate reader. The results are shown in Table 3, subclones of which the hybridoma culture supernatant show strong positive binding to CLDN18.2 (that is, the OD value is 50% higher than the OD value of the positive control) include: S3F10C5, S5H3A6, S5H3B6, S5H3D6, S6F10E7, S6H9B8, S6H9C8, C40B10D9, C42B12D10 and C58B11E11. Among these subclones, S5H3A6, S5H3B6, S5H3D6, C40B10D9, C42B12D10 and C58B11E11 show negative binding to CLDN18.1 cells.

[2] = biological target: T2, human Claudin18.2 (CLDN18.2), full length, on cells (human); assay: cellular ELISA, hybridoma supernatant on fixed HEK293-CLDN18.2 cells
T2 construct: also called CLDN18.2-FL; HEK293-CLDN18.2 cells
Method: as §1

[3] = biological target: T2, human Claudin18.2 (CLDN18.2), full …; assay: cell-based or functional assay
[4] = biological target: T1, human Claudin18.1 (CLDN18.1), full …; assay: FACS on CHO-K1-CLDN18.1 cells
Description: Human gastric cancer cells NUGC4 and stably transfected cells CHO-K1-CLDN18.1 (prepared in Example 5) were used respectively, to verify the specificity and affinity of the anti-CLDN18.2 antibodies above at the cellular level by FAGS technology. After antibody affinity maturation and screening in vitro, each antibody can bind to the CLDN18.2 target on NUGC4 cells, but not to CHO-K1-CLDN18.1 cells, as compared with the original 3CHI antibody.

[5] = biological target: T2, human Claudin18.2 (CLDN18.2), full …; assay: cellular ELISA on fixed HEK293-CLDN18.2 cells
Method: HEK293-CLDN18.1 and HEK293-CLDN18.2 cells were resuscitated two weeks in advance, cultured with DMEM complete culture medium containing 10% fetal bovine serum at 37° C., 5% CO₂. When the cells grew to 80%-90% confluency, they were digested with 0.5 mM EDTA-PBS (Sigma) at room temperature, centrifuged at 1000 rpm for 5 minutes, the supernatant was discarded. Cells were resuspended in DMEM complete culture medium, the cell concentration was adjusted to 6×10⁵ cells/ml. Cells were plated on 96-well cell plates (Corning) pre-coated with polylysine at 2.5 μg/well, 100 μl per well, incubated at 37° C., 5% CO₂ for 24 hours, making cells evenly and completely plated on the bottom of the well. The supernatant was aspirated, and the cells were fixed with 4% paraformaldehyde at room temperature for 20 minutes, washed 3 times with 200 μl PBS, 2 minutes at each time. The well plates were blocked with 200 μl of 3% BSA-PBS at 37° C. for 1 hour. Each chimeric antibody was diluted with 3% BSA-PBS to a concentration of 6 μg/ml, and diluted in a 6-fold gradient to a total of 7 concentrations. At the same time, IMAB362-similar-hG1 diluted in the same concentration gradient as the positive control, and human IgG1, kappa isotype control antibody (hereinafter referred to as Isotype, provided by CrownBio (Taicang) Co., Ltd.) as the negative control were added to HEK293-CLDN18.2 and HEK293-CLDN18.1 cell plates, respectively. The cells were incubated at 37° C. for 1 hour, washed 5 times with PBS. Incubation with HRP-anti human IgG (Jackson) diluted 1:10000 in blocking solution was performed at 37° C. for 1 hour followed by washing 5 times with PBS. 100 μl of TMB one-component color developing solution was added, protected from light at room temperature for 5-10 minutes, terminated with 50 μl of 2M sulfuric acid, OD450 was read on the microplate reader. Data processing: the original data was put into GraphPad 5.0 software for plotting and calculation.

Row | OD450 [1] | OD450 [2] | Binder | other results
1 | 0.114 OD | 0.664 OD | C40B10D9 (antibody, mouse IgM, V domains shown, Hybridoma supernatant antibody; murine IgM, kappa; also called subclone C40B10D9) VH: QVQLKESGPGLVAPSQSLSITCTVSGFSLTSYGVSWVRQPPGKGLEWLGVIWGDGSTNYHSALISRLSISKDNSKSQVFLKLNSLQTDDTATYYCAGGLRLWFAYWGQGTLVTVSA VL: not shown | binding result [1]: no binding
2 | – | 0.671 OD | C58B11E11 (antibody, mouse IgG2c, V domains shown, Hybridoma supernatant antibody; murine IgG2c, kappa; also called subclone C58B11E11) VH: EVQLQQSGPELVKPGASVKMSCKASGYTFTDYNMHWVKQSHGKSLEWIGYINPNNGGTSYNQKFKGKATLTVNKSSSTAYMELRSLTSEDSAVYYCARIYYGNSFAYWGQGTLVTVSA VL: DIVMTQSPSSLTVTAGEKVTMSCKSSQSLLNSGNQKNYLTWYQQKPGQPPKLLIYWASTRESGVPDRFTGSGSGTDFTLTISSVQAEDLAVYYCQNDYSYPFTFGSGTKLEIK | –
3 | – | 0.76 OD | C42B12D10 (antibody, mouse IgM, V domains shown, Hybridoma supernatant antibody; murine IgM, kappa; also called subclone C42B12D10) VH: QVQLQQSGAELVKPGASVKMSCKASGYTFTTYPIEWMKQNHGKSLEWIGNFHPYNDDTKYNEKFKGKATLTVEKSSSTVYLELSRLTSDDSAVYYCARRGYGSSYAMDYWGQGTSVTVSS VL: DIVMTQSPSSLSVSAGEKVTMSCKSSQSLLNSGNQKNYLAWYQQKPGQPPKLLIYGASTRESGVPDRFTGSGSGTDFTLTISSVQAEDLAVYYCQNDHSYPYTFGGGTKLEIK | –

More lines, now with the values behind:

Row | Binder | OD450 [1] | OD450 [2] | other results
4 | B4B10G3 (antibody, V domains shown, Hybridoma supernatant antibody; murine IgG2b, kappa; also called subclone B4B10G3) VH: QIQLVQSGPELKKPGETVKISCKASGYTFTNYGMNWVKQAPGKGLKWMGWINTYTGEPTYADDFKGRFAFSLETSASTAYLQINNLKNEDMATYFCARDGQLGLRFAYWGQGTLVTVSA VL: NIMMTQSPSSLAVSAGEKVTMSCKSSQSVLYSSNQKNYLAWYQQKPGQSPKLLIYWASTRESGVPDRFTGSGSGTDFTLTISSVQAEDLAVYYCHQYLSSRTFGGGTKLEIK | 0.2 OD | 0.343 OD | –
5 | 5M (antibody, human IgG1, kappa) heavy: QVQLQQPGAELVRPGASVKLSCKASGYTFTSYWINWVKQRPGQGLEWIGNIYPSDSYTNYNQKFKDKATLTVDKSSSTAYMQLSSPTSEDSAVYYCTRSWRGNSFDYWGQGTTLTVSSASTKGPSVFPLAPSSKSTSGGTAALGCLVKDYFPEPVTVSWNSGALTSGVHTFPAVLQSSGLYSLSSVVTVPSSSLGTQTYICNVNHKPSNTKVDKKVEPKSCDKTHTCPPCPAPELLGGPSVFLLPPKPKDTLMISRTPEVTCVVVDVSHEDPEVKFNWYVDGVEVHNAKTKPPEEQYNSTLRVVSILTVLHQDWLNGKEYKCKVSNKALPAPIEKTISKAKGQPREPQVYTLPPSRDELTKNQVSLTCLVKGFYPSDIAVEWESNGQPENNYKTTPLVLDSDGSFFLYSKLTVDKSRWQQGNVFSCSVMHEALHNHYTQKSLSLSPGK light: DIVMTQSPSSLTVTAGEKVTMSCKSSQSLLNSGNQKNYLTWYQQKPGQPPKLLIYWASTRESGVPDRFTGSGSGTDFTLTISSVQAEDLAVYYCQNDYSYPFTFGSGTKLEIKRTVAAPSVFIFPPSDEQLKSGTASVVCLLNNFYPREAKVQWKVDNALQSGNSQESVTEQDSKDSTYSLSSTLTLSKADYEKHKVYACEVTHQGLSSPVTKSFNRGEC | – | – | ADCC activity by luciferase labeling, EC50 [3]: 0.44 nM; ADCC activity by luciferase labeling, Top [3]: 98400
6 | S6H9B8 (antibody, mouse IgG3, V domains shown, Hybridoma supernatant antibody; murine IgG3, kappa; also called subclone S6H9B8) VH: QVQLQQSGAELARPGASVKLSCKASGYTFTSYGISWVKQRTGQGLEWIGEIYPRSGNTYYNEKFKGKATLTADKSSSTAYMELRSLTSEDSAVYFCASLAWFAYWGQGTLVTVSA VL: DIVMTQAAPSVPVTPGESVSISCRSSKSLLHSNGNTYLYWFLQRPGQSPQLLIYRMSNLASGVPDRFSGSGSGTAFTLRISRVEAEDVGVYYCMQHLEYPYTFGGGTKLEIK | 1.5 OD | 2.35 OD | –
7 | S5H3B6 (antibody, mouse IgM, V domains shown, Hybridoma supernatant antibody; murine IgM, kappa; also called subclone S5H3B6) VH: EVKLVESGGGLVQPGGSLKLSCAASGFTFSDYGMAWVRQAPRKGPEWVAFISNLAYSIYYADTVTGRFTISRENAKNTLYLEMSSLRSEDTAMYYCARLGYGNSFAYWGQGTLVTVSA VL: DIVMTQSPSSLTVTAGEKVTMSCKSSQSLLNSGNQKNYLTWYQQKPGQPPKLLIYWASTRESGVPDRFTGSGSGTDFTLTISSVQAEDLAVYYCQNDYSYPLTFGAGTKLELK | 0.152 OD | 1.38 OD | binding result [1]: no binding
8 | 17CHI (antibody, V domains shown, Human-murine chimeric antibody with the constant region of human IgG1; also called chimeric antibody of C58B11E11) VH: EVQLQQSGPELVKPGASVKMSCKASGYTFTDYNMHWVKQSHGKSLEWIGYINPNNGGTSYNQKFKGKATLTVNKSSSTAYMELRSLTSEDSAVYYCARIYYGNSFAYWGQGTLVTVSA VL: DIVMTQSPSSLTVTAGEKVTMSCKSSQSLLNSGNQKNYLTWYQQKPGQPPKLLIYWASTRESGVPDRFTGSGSGTDFTLTISSVQAEDLAVYYCQNDYSYPFTFGSGTKLEIK | – | – | MFI (CLDN18.1) [4]: 14500 MFI; EC50 [5]: 2.44 nM
9 | 19CHI (antibody, V domains shown, Human-murine chimeric antibody with the constant region of human IgG1; also called chimeric antibody of C42B12D10) VH: QVQLQQSGAELVKPGASVKMSCKASGYTFTTYPIEWMKQNHGKSLEWIGNFHPYNDDTKYNEKFKGKATLTVEKSSSTVYLELSRLTSDDSAVYYCARRGYGSSYAMDYWGQGTSVTVSS VL: DIVMTQSPSSLSVSAGEKVTMSCKSSQSLLNSGNQKNYLAWYQQKPGQPPKLLIYGASTRESGVPDRFTGSGSGTDFTLTISSVQAEDLAVYYCQNDHSYPYTFGGGTKLEIK | – | – | EC50 [5]: 29.9 nM
